Data published in PMC7527728, “CPSF6-Dependent Targeting of Speckle-Associated Domains Distinguishes Primate from Nonprimate Lentiviral Integration” (mBio, 2020).
pKd: −log10 of the molar value.

Target: CPSF6_(276–290/F284A) peptide (human)
Assay: fluorescence polarisation; 150 nM FITC-Ahx-labelled peptide mixed with increasing capsid NTD protein (2 μM to 2 mM) in 50 mM Tris-HCl pH 8.0, 50 mM NaCl, 384-well plates; one-site specific binding model; the EIAV constants are called apparent

Substance	pKd
HIV-1 capsid N-terminal domain (NTD) protein (domain or fragment)	< 2.22
MLV capsid N-terminal domain (NTD) protein (domain or fragment)	< 2.10
